This passage reports Kd results from article PMC9241672.

pKd: −log10 of the molar value.

In the data set the test system is His-ArgR2 (Lactiplantibacillus plantarum AR195). Kind of data set: BLI. Particulars: ArgR2 256-4097 nM; BLI: 10 mM HEPES pH 8.0, 2 mM MgCl2, 0.1 mM EDTA, 200 mM KCl, 1 per mille (w/v) BSA and 2 per mille (v/v) Tween 20 in protein buffer; temperature not stated. ….

Substance cla promoter probe had a negative-log Kd (pKd) greater than 12.00.

What is called pKd is the negative decadic logarithm of the Kd, by convention in mol/L. High values mean a low Kd, low ones a high Kd.
